The target in one experiment is T1, mouse FAP (cell surface) (mouse, UniProt P97321).
T1 chain: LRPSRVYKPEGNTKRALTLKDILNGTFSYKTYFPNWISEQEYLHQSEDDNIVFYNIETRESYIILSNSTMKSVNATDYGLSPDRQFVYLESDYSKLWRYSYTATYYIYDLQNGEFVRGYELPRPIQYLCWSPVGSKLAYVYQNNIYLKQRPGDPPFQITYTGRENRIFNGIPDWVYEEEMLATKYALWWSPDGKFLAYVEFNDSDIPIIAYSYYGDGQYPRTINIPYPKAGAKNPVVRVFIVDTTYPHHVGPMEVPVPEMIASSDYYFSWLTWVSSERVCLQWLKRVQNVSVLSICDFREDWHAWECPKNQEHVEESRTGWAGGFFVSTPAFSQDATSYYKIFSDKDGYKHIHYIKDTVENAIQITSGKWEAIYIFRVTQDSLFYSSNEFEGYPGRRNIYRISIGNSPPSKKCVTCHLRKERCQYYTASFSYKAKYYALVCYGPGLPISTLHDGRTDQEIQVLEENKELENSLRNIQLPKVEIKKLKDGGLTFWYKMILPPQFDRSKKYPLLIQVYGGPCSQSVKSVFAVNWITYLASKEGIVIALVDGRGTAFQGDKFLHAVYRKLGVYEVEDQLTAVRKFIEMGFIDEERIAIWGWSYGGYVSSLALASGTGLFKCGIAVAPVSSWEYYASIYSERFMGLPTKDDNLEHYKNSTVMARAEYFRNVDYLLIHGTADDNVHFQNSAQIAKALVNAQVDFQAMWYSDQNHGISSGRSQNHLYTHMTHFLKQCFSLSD
Put plainly: FACS.

A further experiment concerns the target human FAP (cell surface) (human, UniProt Q12884). Put plainly: FACS. (In general: Flow cytometry measures light scatter and fluorescence of single cells or particles in a stream.)
The target in another experiment is human FAP ECD (human, UniProt Q12884). The experiment can be described thus: SPR. (Surface plasmon resonance follows binding to a sensor surface in real time, without labels.)
human FAP ECD, sequence (Q12884 26-760): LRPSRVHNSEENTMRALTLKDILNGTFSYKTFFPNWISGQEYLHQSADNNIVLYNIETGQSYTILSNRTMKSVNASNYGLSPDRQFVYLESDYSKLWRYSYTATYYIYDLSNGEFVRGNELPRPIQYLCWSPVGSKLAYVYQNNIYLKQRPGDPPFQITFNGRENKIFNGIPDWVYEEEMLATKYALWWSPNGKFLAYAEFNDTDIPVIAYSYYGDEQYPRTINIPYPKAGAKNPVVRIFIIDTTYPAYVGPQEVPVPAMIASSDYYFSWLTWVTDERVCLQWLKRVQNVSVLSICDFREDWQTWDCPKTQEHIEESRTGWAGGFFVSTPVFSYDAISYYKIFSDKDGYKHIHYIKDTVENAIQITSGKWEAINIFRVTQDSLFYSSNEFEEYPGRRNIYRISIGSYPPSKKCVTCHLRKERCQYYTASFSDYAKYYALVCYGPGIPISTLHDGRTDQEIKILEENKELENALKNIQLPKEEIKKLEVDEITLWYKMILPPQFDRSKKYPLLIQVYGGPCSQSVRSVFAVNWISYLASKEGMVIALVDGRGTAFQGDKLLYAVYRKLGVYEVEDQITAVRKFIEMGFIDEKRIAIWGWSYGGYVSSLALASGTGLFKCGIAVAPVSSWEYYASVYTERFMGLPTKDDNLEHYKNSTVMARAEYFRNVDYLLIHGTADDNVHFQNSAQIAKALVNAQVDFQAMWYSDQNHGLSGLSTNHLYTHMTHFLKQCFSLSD

human FAP (cell surface), sequence (Q12884 26-760): as above

B1: Ab10-A297V3-2 FAP arm (antibody, V domains shown)
VH: QVQLQQSGVEVKKPGASVTVSCRASGYSFADHFIHWVRQAPGQGFQWMGWINPNRGVTHHAQDFQGRVAMTRDMSTDTVYMELTSLRSDDTAVYYCARDASLTARPYYFYGFDVWGQGTLVTVSS
VL: DIQMTQSPSSVSASVGDRVTITCRASQGISSWLAWYQQKPGKAPKLLIYAASSLQSGVPSRFSGSGSGTDFTLTISSLQPEDFATYYCQQANSFPPAFGQGTKVEIK
On to B1, for which the EC50 with mouse FAP (cell surface) worked out at 0.79 nM; with human FAP (cell surface) it was 2.51 nM. The molecule further showed a Kd with human FAP ECD of 0.405 nM.

B2: Ab10-A297V3-4 FAP arm (antibody, V domains shown)
VH: B1 VH
VL: B1 VL
Turning to B2, the EC50 in the experiment with mouse FAP (cell surface) was 1.65 nM; with human FAP (cell surface), 1.57 nM. The molecule also displayed a Kd with human FAP ECD of 0.378 nM.

The EC50 is the concentration giving half of the maximal effect. Read a high EC50 as lower potency in that assay. A word on the Kd: it is the concentration at which binding is half-saturated.
